Where no end group is shown, it is not given here.
Experiments:
[1] = molecular target: T1, CAL PDZ domain (CALP), wild type (UniProt Q9HD26 278-362); assay: fluorescence anisotropy displacement; Fig 9A
N1P1 = assay: fluorescence anisotropy displacement; Fig 9B
[2] = molecular target: T1, CAL PDZ domain (CALP), wild type; assay: fluorescence anisotropy displacement; Fig 9B
CALP-H301A mutant = CALP-H301A mutant (UniProt Q9HD26 278-362); assay: fluorescence anisotropy displacement; Fig 9B
[3] = molecular target: T1, CAL PDZ domain (CALP), wild type; assay: fluorescence anisotropy displacement; Fig 9A; upper bound, nonspecific Rh inhibition

Row | Binder | Ki (N1P1) | Ki [2] | other results
1 | Ac-QLDVTR [QLDVTR peptide (scrambled control sequence)] | – | – | Ki [1]: > 500 µM
2 | Ac-EWPTSII-OH | > 500000 nM | – | –
3 | Ac-VQD(dirhodium)TRL-OH (also: dirhodium metal complex at Asp side-chain carboxylate) [VQD^RhTRL metallopeptide] | – | ~49000 nM | –
4 | Ac-E(dirhodium)WPTSII-OH (also: dirhodium metal complex at Glu side chain) [E(Rh)WPTSII] | > 50000 nM | – | –
5 | Ac-VQDTRL-OH | 700 nM | – | –
6 | Ac-EVQSTRL-OH | 710 nM | – | –
7 | Ac-E(dirhodium)VQSTRL-OH (also: dirhodium metal complex at Glu side-chain carboxylate) [E^RhVQSTRL metallopeptide] | – | 430 nM | Ki (CALP-H301A mutant): 11.3 µM
8 | Ac-E(dirhodium)WPTSII-OH (also: dirhodium metal complex at Glu side chain) [E^RhWPTSII metallopeptide] | – | 1300 nM | –
9 | Ac-E(dirhodium)VQSTRL-OH (also: dirhodium metal complex at Glu side-chain carboxylate) [E(Rh)VQSTRL] | 32 nM | – | –
10 | Ac-QLD(dirhodium)VTR (also: dirhodium metal complex at Asp side-chain carboxylate) [QLD^RhVTR metallopeptide] | – | – | Ki [3]: 10 µM
